Results from PMC4498709.

How the values were obtained:
[1] = tested on: ctMex67 LRR-NTF2L (RRM deletion);ctMtr2 (Chaetomium thermophilum;Chaetomium thermophilum); assay: fluorescence anisotropy; conditions: 20 mM Tris-HCl pH 8.0, 50 mM NaCl, 10 nM DY-547-labelled RNA, serially diluted protein; temperature not stated
[2] = tested on: ctMex67 deltaUBA (deltaN deltaUBA);ctMtr2 (Chaetomium thermophilum;Chaetomium thermophilum); assay: fluorescence anisotropy; conditions: 20 mM Tris-HCl pH 8.0, 50 mM NaCl, 10 nM DY-547-labelled RNA, serially diluted protein; temperature not stated
[3] = tested on: ctMex67 deltaN (with Mtr2);ctMtr2 (Chaetomium thermophilum;Chaetomium thermophilum); assay: fluorescence anisotropy; conditions: 20 mM Tris-HCl pH 8.0, 50 mM NaCl, 10 nM DY-547-labelled RNA, serially diluted protein, temperature not stated
[4] = tested on: ctMex67 RRM-LRR (NTF2L-Mtr2 deletion) (Chaetomium thermophilum); assay: fluorescence anisotropy; conditions: 20 mM Tris-HCl pH 8.0, 50 mM NaCl, 10 nM DY-547-labelled RNA, serially diluted protein; temperature not stated
[5] = target: Chaetomium thermophilum Mex67 LRR-NTF2L (ctMex67^LRR-NTF2L; residues 180-556) (Chaetomium thermophilum); assay: SEC-MALS; ctMex67^LRR-NTF2L alone; single peak; dimer

## AAAAAAAAAAAAAAA [polyA15]
[1]
  Kd: 6.8 µM
[2]
  Kd: 0.37 µM
[3]
  Kd: 350 nM
[4]
  Kd: 5.5 µM

## CCCCCCCCCCCCCCC [polyC15]
[3]
  Kd: 6000 nM

## Chaetomium thermophilum Mex67 LRR-NTF2L (ctMex67^LRR-NTF2L; residues 180-556) (domain or fragment)
[5]
  stoichiometry N: 2

## GGGGGGGGGGGGGGG [polyG15]
[3]
  Kd: 310 nM

## UUUUUUUUUUUUUUU [polyU15]
[3]; printed '930 and 6.0 µM, respectively', 930 read as nM
  Kd: 930 nM
